Target: S蛋白RBD-His (319Arg-532Asn) (2019-nCoV (SARS-CoV-2)) (UniProt P0DTC2)
Experiment: BLI (Fortebio), RBD-His on Anti-Penta-HIS sensor, antibody in solution

Which Kd does the source give for 对照抗体CR3022 (antibody) here?
The Kd was 2.42 nM.

What about the koff of the same substance?
Its koff is 0.000278 s⁻¹.

What about the kon of the same substance?
Its kon is 115000 M⁻¹ s⁻¹.
